In the experiment the target is T1, Human APOBEC-2 (APO2) containing residues 41-224 (human), Q9Y235.
T1 chain: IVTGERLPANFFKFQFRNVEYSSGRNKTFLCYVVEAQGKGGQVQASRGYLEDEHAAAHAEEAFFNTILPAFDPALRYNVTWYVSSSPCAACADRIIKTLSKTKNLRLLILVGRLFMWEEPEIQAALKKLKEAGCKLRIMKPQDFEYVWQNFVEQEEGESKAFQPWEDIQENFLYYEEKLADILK
Nature of the experiment: X-ray crystal structure, tetramer interface. The conditions noted are these: remark: other sources report otherwise.

B1: Human APOBEC-2 (APO2) containing residues 41-224, Q9Y235 41-224 (enzyme, UniProt Q9Y235 41-224, looked up)
chain: IVTGERLPANFFKFQFRNVEYSSGRNKTFLCYVVEAQGKGGQVQASRGYLEDEHAAAHAEEAFFNTILPAFDPALRYNVTWYVSSSPCAACADRIIKTLSKTKNLRLLILVGRLFMWEEPEIQAALKKLKEAGCKLRIMKPQDFEYVWQNFVEQEEGESKAFQPWEDIQENFLYYEEKLADILK
In turn, B1 came in with a total buried area within the tetramer interface of 1740 Å^2.
